Assay results taken from patent publication US20090004111.

Biological target: NS5A domain I-Δh (HCV NS5A N-terminal domain) (Hepatitis C virus) (UniProt Q9WMX2)
Assay: EMSA
Conditions: approximate Kd, non-specific RNA sequence; text says NS5A, construct taken as the purified domain I-Δh

UniProt Q9WMX2, sequence (Q9WMX2 1997-2188, tags or fused parts left off): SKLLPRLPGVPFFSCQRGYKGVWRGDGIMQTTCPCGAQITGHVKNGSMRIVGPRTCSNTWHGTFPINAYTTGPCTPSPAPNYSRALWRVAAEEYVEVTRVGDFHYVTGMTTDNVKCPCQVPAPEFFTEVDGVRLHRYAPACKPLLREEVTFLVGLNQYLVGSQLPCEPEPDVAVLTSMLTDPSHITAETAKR

non-specific ssRNA (plasmid polylinker transcript)
Kd: 10 nM
